Experiment: soluble on expression in E. coli; label from the status in PepcDB or PDB records

| Sequence | soluble on expression in E. coli |
| --- | --- |
| MKEKYKKSLYIPNELLLEIFADKNLDIQNIIVVSMVCKLWYELSLDNAVWRPLFIKRFSYSPTLANHSIFKEDYQKQLALTQAMKKKCESNHACRNEPGLLEAIREKNIPLIYALFESGHRIIIDSFPDGEQQFTEEMLGFLSECAELPSSLLARIFKRGFCTADMETSEFLALHFIVAEADEKLLQKIFRALGDDLLSVSRYCDLYDNNFFSSLLHFPVERFSLVLRLLYETLGKTKLSTLLVYQNHTYTDWSCIHSASRCGREYFFITLKYLKRQDYPVLLKKGLNDEDIPLFNIAYWGDKESLSHIINILGADATTFLKYKDNKGRNILLPALLSEDHSTVELIEKVMGMEFIDLLLMQDTNGRDILRRVMLLQEPTVLRRINTVLKLLRDYDCLDIAQELYSSDEFTQLISQNLYINQDETIELFNKYTEEKTNNFCSIL | not soluble |
| MSLVKYGVVGAGYFGAELARYMQKNDGAEITLLYDPDNAEAIAEELGAKVASSLDELVSSDEVDCVIVATPNNLHKEPVIKAAQHGKNVFCEKPIALSYQDCREMVDACKENNVTFMAGHIMNFFNGVHHAKELINQGVIGDVLYCHTARNGWEEQQPSVSWKKIREKSGGHLYHHIHELDCVQFLMGGMPETVTMTGGNVAHEGEHFGDEDDMIFVNMEFSNKRFALLEWGSAYRWGEHYVLIQGSKGAIRLDLFNCKGTLKLDGQESYFLIHESQEEDDDRTRIYHSTEMDGAIAYGKPGKRTPLWLSSVIDKEMRYLHEIMQGAPVSEEFAKLLTGEAALEAIATADACTQSMFEDRKVKLSEIVKEGHHHHHH | soluble |
| KRKERLSARLGDILSQLYLSSATLKRFEQDGRPAEDLALVHWGLQDSLKQAEIAIDEFLANFPNKVIGRTLRVLIMPFGRVRKAPSDKLDSKVARILQTPSATRSRIGRGQYLEPTEHNPAGKIELALSVILQAEPVFDKVCKAQGKRRPFLRLDMIAQEGLEQGVITQEEAELLREAEQHRLDTINVDDFEPELLAAKPLYPQMDSVA | not soluble |
| MKKGSRHNFVVSQENWTLHRKGYQDQRRHQEKVKEAIRKNLPDLVSEENIIMSNGREVIKIPIRSLDEYKIRYNYDKNKHVGQGDGDSQVGDVIARDPSAGQQGPGKGQGAGDQPGEDYFEAEVSILELEELLFRELELPNLQQKEEDHLVVEHIEFNDIRKKGLMGNIDKRRTILSAIKRNALEGRPGLIPIYNDDLRFKTWNEVVRPESKAVVLAMMDTSGSMGRWEKYMARSFFFWMTRFLRTKYETVDIEFIAHHTEAKVVSEEDFFSKGESGGTICSSAYRKALELINEKYDPARYNIYPFHFSDGDNLTSDNARCLKLVHELMESSSMFGYGEVNQYSRHSTLMNAYKNLKDPRFRSYVLKEKGDVYRAMKTFFKKEEEAVSAAALEHHHHHH | soluble |
| NDRHIRHDITRPLPFADNSVDAFQAEDVLEHIAYDRIVPVLNEIHRVLKPGAVFRLSVPDYRCDILDARTEKDATGAPVFDPGGGGTRENPGHAWFPRYETVKTLVEKSNFGTAGEISFLHYYDEHNLPAMREIDYAKGFIQRPPDHDPRVQTPYRPMSLVVDLTKRDVRIFSSFNNSASHA | not soluble |
| GEMDERLLQKYRAQVFEWGGCFDKMFEALKSLIYLSEFENSEFDDEERHLLTLCIKHKISDYRTMTSQVLQEQTKQLNNDELVKICSEYVFSLRKDIKAFLQSFEDCVDRLVEKSFFSKFFKLKVKSDISRYKLEFGLCSLEDSKKIHQDAFTLLCEHPDKIEQLPLGFIQNLAYILSEKYGEKKQVFNMLNSLGKILELQIKEQENMDRKAQITVYLQGIKDYIEK | soluble |
| MTDQGLEGSNPVDLSKHPSGIVPTLQNIVSTVNLDCKLDLKAIALQARNAEYNPKRFAAVIMRIREPKTTALIFASGKMVCTGAKSEDFSKMAARKYARIVQKLGFPAKFKDFKIQNIVGSCDVKFPIRLEGLAYSHAAFSSYEPELFPGLIYRMKVPKIVLLIFVSGKIVITGAKMRDETYKAFENIYPVLSEFRKIQQ | soluble |
| MAQFIDRRLNGKKKSTVNRQRFIRRHKDQIKRAVSDAVNQRSVTNTESGESISIPKGDISEPVFHQGQGGIRERVLPGNDQFIKGDKIERPQGGNGGGGAGDGDASADGEGQDDFIFQISKDEYLDILFEELELPNLEKNQVQKITEWETHRAGYQTAGVPSNIDIVRSLQQSLARRTAMTAGKKRLLSELEQELETIKNSEPSQPLAVRKMQEQIEELRERIKHVPYIDSFDLRYKNYERTPIPSSQAVMFCLMDVSGSMDQATKDIAKRFYVLLYLFLTRTYENVEVVFIRHHTQAKEVNEHDFFYSQETGGTMVSSALKLMRDIVAERFPANEWNIYAAQASDGDNWADDSPKCKELLTSSILPTCQYYSYIEITKRHHQTLWTEYDKLAQGFDNFAMKNIRSVEDIYPIFRELFQKQLALEHHHHHH | not soluble |
| MTESVARLRGEQLTLGYGKYTVAENLTVEIPDGHFTAIIGPNGCGKSTLLRTLSRLMTPAHGHVWLDGEHIQHYASKEVARRIGLLAQNATTLGDITVQELVARGRYPHQPLFTRWRKEDEEAVTKAMQATGITHLADQSVDTLSGGQRQRAWIAMVLAQETAIMLLDEPTTWLDISHQIDLLELLSELNREKGYTLAAVLHDLNQACRYASHLIALREGKIVAQGAPKEIVTAELIERIYGLRCMIIDDPVAGTPLVVPLGRTAPSTANS | not soluble |
| DGNEIIGDPLRKAAKLIDKGYIVAIKGIGGIHLACDATREDVVAELRKRIFRPQKPFAIMAKDLETVRTFAYISPEEEEELTSYRRPIVALKKKEPFPLPENLAPGLHTIGVMLPYAGTHYILFHWSKTPVYVMTSANFPGMPMIKDNEEAFEKLRDVADYLLLHNRRIPNRADDSVVRFVDGRRAV | not soluble |
| MSLATMQDVATLAGVAPMTVSNCYRVPDKVHPQTLARVLEAAAKLGYTRNRIAGNLASGRSQVVGVLVPSLENSNFIGMIQGLEDRLHQLDHQLMLAVTPTADRELDSIRTFIERRIDGVVLTDVQHSRDTVDLLRNARLPTVETWSLKGPFIDMGVGFSLYDAAFDMTNLMIEAGYRRIGFAGFTPASTERFLERQRGFEDALRRANLRHDVHAYTEQSEGFAGGRITLNALLREEPELDGVFCGTDILAAGMIFECMRRGWRVPGRIGIAGYGNYQIASEITPKLTTVATPGYEMGVAAAEMLVGRLVGAAPAPVIRDVGYRLISGASEGHHHHHH | not soluble |
| SVGTSCIPGMAIPHNPLDSCRWYVSTRTCGVGPRLATQEMKARCCRQLEAIPAYCRCEAVRILMDGVVTSSGQHEGRLLQDLPGCPRQVQRAFAPKLVTEVECNLATIHGGPFCLSLLGAGE | soluble |
| SKHYPEAGIQYSSSTTGDGRPLDIEFSGSCSLEKFYDNPKSNDGNSYRLQSWLYASRLLQYSDALEHLLSTGQGVVLERSIYSDFVFLEAMYNQGFIRKQCVDHYNEIKRLTLPEYLPPHAVIYIDVPVSEIQSRIQKKGDPHEMKVTSAYLQDIEDAYKKTFLPKMSEICEVLVYSSWEAEDSTKVVEDIEYLNYNKGPWLKQDDRTFHNLRMLVQDKREVLNYTTVPVYLPEITIGAHQGSRIYDSFRELPGRKYAPGYNADVGDKWIWLK | soluble |
| SRSRPAGPALLLLLLFLGAAESVRRAQPPRRYTPDWPSLDSRPLPAWFDEAKFGVFIHWGVFSVPAWGSEWFWWHWQGEGRPQYQRFMRDNYPPGFSYADFGPQFTARFFHPEEWADLFQAAGAKYVVLTTKHHEGFTNWPSPVSWNWNSKDVGPHRDLVGELGTALRKRNIRYGLYHSLLEWFHPLYLLDKKNGFKTQHFVSAKTMPELYDLVNSYKPDLIWSDGEWECPDTYWNSTNFLSWLYNDSPVKDEVVVNDRWGQNCSCHHGGYYNCEDKFKPQSLPDHKWEMCTSIDKFSWGYRRDMALSDVTEESEIISELVQTVSLGGNYLLNIGPTKDGLIVPIFQERLLAVGKWLSINGEAIYASKPWRVQWEKNTTSVWYTSKGSAVYAIFLHWPENGVLNLESPITTSTTKITMLGIQGDLKWSTDPDKGLFISLPQLPPSAVPAEFAWTIKLTGVK | soluble |
| MEYKDATHTTATQTVHYVNQDGDKVFDDDTSQTLNYERGVTIDEVTGEVISYGDWTPVDGDEFGSVTSPDKPGYAVDTKVVSGEKPEITNGKDGKVNDVEVTVTYTASNEDATLEHHHHHH | soluble |
| MGSDKIHHHHHHMKKASTLPLFERLVQHDRGGPISCHVPGHKQGALFHKDACSYFQSILSLDVTELTGLDDLHDPRGVIAEAQALTARYVGAEATCFLVNGSTVGNLAMILGTLEPGDTVFVQRDSHKSVMNGLAMARVHPIFLSPSYDERTQLPTGITEQTLKQALIEHPNGKALILTYPSYYGVARSIRPLVQMAKEAGLYVLVDEAHGAHFPVGDPFPKQALEQGADVVVQSAHKTLPALTMGSYLHFAHGLHSKIKDSIREQLQILQSSSPSYPILASLDAARGFLEDLTNVKDTLDSIAEMNRRIEQVERLSVATFSPLPTDPLKTVITVEGATGFALQTELEKEGIYSELADDRHVLLMWGLTPLQKVRQEEIIDKMCRATKRLPALEQISKGCPLSLSWQAHTSLDLSYDEQKRYSIEEVAVEEAVGKVSGATVIPYPPGVPLLLKGEKITEPLIAQFQQLQEAGARFQGRPSEQQGLYVFTLEAMT | not soluble |
| MEVKLPELGDNVTQATVVGVLVKEGDRVEPGQPLLELETDKAVVEVPAEAGGVVKRVLVKVGDEVRPGQPFLELAEAEGGAEAPPLKAEERPEAPAPKAEEAPRPAPKEAPPAPQEAPSERRLIPAAPSIRRLARELGVDLTRLRGTGLAGRITEEDVRRAAGLGEAAPAALPAAPAPRLPDFTKWGPVRREPMSGVRKATVRSMSQAWAQVPMVTHFDEADVTELEALRKQYAKKAEEKGFRLTLTAFLLKALALTLKAFPKFNASLDVEAQEIVYKDYIHIGVAVDTPHGLLVPVIRDVDRKGVLRLAEELQEISQRARERKLSPEEMQGATFSLSNLGGIGGTGFTPIVNWPEVAILGVSRSQMKPLWDPGKEAFVPRLVMPFSLTYDHRLIDGADAARFCRHLAGILEDPLGLALA | soluble |
| MMAKDFYSAIEDRRSIYAISKEQVVSDEKIQEVIYHAVKHTPSAFNSQSARVVVLLGEQHDKLWDITKETLRKIVPENNFAPTEEKMNAFKSGYGTVLYFEDSEVVESLQANFALYKDNFPTWSQQSSGMLQFAIWTALEIEGFGATLQHYNPLIDEEVRKEWDVPANWKLIAQMPFGKPVVQAGEKEFQPLENRVKIYK | not soluble |
| MAHHHHHHMGTLEAQTQGPGSMSMAQQFIDIGANLTDDNYFGNYHGKHYHEEDIDVVLQRAERNGLSHIIITSGCLNDFKKAIEIINKYQNLTNIKLVTTIGVHPTRTNELKQEGYLDELLLLCEKNIDKVVAIGEIGLDYERLQFSDKETQLSGYRTLSILHQKYPYLPFFFHCRKSWSDLCQLNKELGYNGCKGVVHCFDGTEEEMNQILNEGWDIGVTGNSLQSIELLNVMKQIPIERLHIETDCPYCGIKKTSAGFKYLKEKDFGVKVEKYQRNKYVQRRNEPSNIIDIAIIMSSIKHISLFEFVNKVYSNSMNMYFPTMN | soluble |
| RRIGKVNLRHNRGFLTPELKRNFLRYTLFYVVASIGSKLSSRLDLFMVSSLDKGGLDSGGIFSIAFYMVAVVEIPSRSLLSVSSPLMADAMKRNDLVKADELFKRVSLHQ | not soluble |
| MVLALITLVVSAFLIPEVLADPCGDSNWRYFPQTNSCYKLIDENLPWTIAEFKCLFQGAHHVSIDSPEENQFVHELSRWSEIWTGAAFFGKDQHYVNSDGSRYGNFENWKDGRKPPMNRARRCIKMDGNGEWFQSCCKKKTFTICEKKAAYSASSYSGSNNSVNGFRFMRHRS | not soluble |

From the DeepSol protein solubility set
